# From the supplement of paper PMC7877785
# ± gives the uncertainty stated by the source.
# Experiment: self-splicing fitness, log relative to wild type (ln ratio); higher = more splicing; Tetrahymena group I intron in knt gene, E. coli kanamycin selection, DiMSum; sequences stand for … in CUCUCU…GGAGGGAAAAGUUAUCAGGCAUGCACCUGGUAGCUAGUCUUUAAACCAAUAGAUUGCAUCGGUUUAAAAGGCAAGACCGUCAAAUUGCGGGAAAGGGGUCAACAGCCGUUCAGUACCAAGUCUCAGGGGAAACUUUGAGAUGGCCUUGCAAAGGGUAUGGUAAUAAGCUGACGGACAUGGUCCUAACCACGCAGCCAAGUCCUAAGUCAACAGAUCUUCUGUUGAUAUGGAUGCAGUUCACAGACUAAAUGUCGGUCGGGGAAGAUGUAUUCUUCUCAUAAGAUAUAGUCGGACCUCUCCUUAAUGGGAGCUAGCGGAUGAAGUGAUGCAACACUGGAGCCGCUGGGAACUAAUUUGUAUGCGAAAGUAUAUUGAUUAGUUUUGGAGUACUCGUGGUCG
# Procedure, shortened: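 Six replicate transformations of E. coli BL21(DE3) with a pET-22b(+) library were grown overnight at 37°C or 30°C. The library randomised all eight P1ex-region intron nucleotides, the intron lying in the knt kanamycin-resistance gene, and plates were LB agar with or without 25 μg/mL kanamycin plus 100 μg/mL carbenicillin, 50 μM IPTG and 0.2% rhamnose. Pooled colonies were amplicon-sequenced on an Illumina HiSeq 2500, and fitness is the DiMSum error-weighted combination of wild-type-normalised replicate fold changes, kanamycin versus none.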
Sequence,self-splicing fitness (ln) (30 °C),self-splicing fitness (ln) (37 °C)
AUUUAGCAAUAUUACGGACA,-1.34 ± 0.27,-0.739 ± 0.27
ACUGAGCAAUAUUACGCAAU,-2.79 ± 0.28,-2.03 ± 0.27
UUCAAGCAAUAUUACGAGAG,-1.5 ± 0.11,-1.34 ± 0.11
ACCUAGCAAUAUUACGUGAC,-3.2 ± 0.12,-0.892 ± 0.11
UAUCAGCAAUAUUACGCUGA,–,-2.31 ± 0.37
CCAGAGCAAUAUUACGGACA,-3.25 ± 0.44,–
CAAUAGCAAUAUUACGUACA,-3.18 ± 0.4,-1.82 ± 0.25
AGAUAGCAAUAUUACGUCAG,-2.66 ± 0.15,-1.01 ± 0.13
CACGAGCAAUAUUACGCCGU,-3 ± 0.21,-2.26 ± 0.18
AAUUAGCAAUAUUACGCUGA,-2.75 ± 0.4,-2.42 ± 0.27
ACGUAGCAAUAUUACGUGCU,-1.94 ± 0.11,-0.828 ± 0.12
GCUUAGCAAUAUUACGGUAC,-1.91 ± 0.14,-0.938 ± 0.19
GGACAGCAAUAUUACGACUG,-0.809 ± 0.12,-0.232 ± 0.17
UCUGAGCAAUAUUACGCCGA,-1.16 ± 0.21,0.184 ± 0.22
GCAAAGCAAUAUUACGUGCC,-4.02 ± 0.25,-1.63 ± 0.2
UCUUAGCAAUAUUACGCGUU,-3.83 ± 0.34,-1.75 ± 0.2
UCGGAGCAAUAUUACGUAAA,-3.16 ± 0.31,-1.55 ± 0.29
UUCAAGCAAUAUUACGCUAA,-1.35 ± 0.2,-0.551 ± 0.19
UGUAAGCAAUAUUACGGGCA,-0.98 ± 0.09,0.521 ± 0.1
CAAUAGCAAUAUUACGAAAU,-3.12 ± 0.15,-2.42 ± 0.23
CCCUAGCAAUAUUACGCUUC,-2.66 ± 0.1,-2.36 ± 0.16
GAUUAGCAAUAUUACGCGUU,-2.52 ± 0.31,-1.8 ± 0.34
GUUGAGCAAUAUUACGAUAG,–,-3.04 ± 0.31
GAAGAGCAAUAUUACGUCCA,-3.13 ± 0.4,–
AUAAAGCAAUAUUACGGACA,-0.148 ± 0.094,0.131 ± 0.13

Sequence,self-splicing fitness (ln) (30 °C),self-splicing fitness (ln) (37 °C)
UGAGAGCAAUAUUACGUCAA,-3.55 ± 0.29,-2.89 ± 0.3
CGGGAGCAAUAUUACGCUAA,-2.62 ± 0.43,–
CUCUAGCAAUAUUACGAUCG,-1.57 ± 0.081,-0.281 ± 0.12
GAGGAGCAAUAUUACGCGCG,-2.81 ± 0.28,-0.781 ± 0.39
ACACAGCAAUAUUACGCUAG,-1.41 ± 0.075,-1.06 ± 0.092
AGCAAGCAAUAUUACGGGUC,-2.05 ± 0.22,-1.82 ± 0.21
GACUAGCAAUAUUACGUCGA,-1.96 ± 0.11,-0.484 ± 0.1
UUCGAGCAAUAUUACGUUAC,-3.5 ± 0.48,–
GGAUAGCAAUAUUACGAAAG,-2.79 ± 0.48,–
UCCAAGCAAUAUUACGGAAG,-1.85 ± 0.2,-1.8 ± 0.24
UAUGAGCAAUAUUACGUGCG,-1.06 ± 0.12,-1.41 ± 0.16
UGUAAGCAAUAUUACGAUAG,-1.44 ± 0.25,-1.87 ± 0.29
CGACAGCAAUAUUACGUGAA,-1.93 ± 0.11,-2.02 ± 0.15
UCAUAGCAAUAUUACGCGGC,-3.53 ± 0.44,–
ACAUAGCAAUAUUACGCGGU,-3.36 ± 0.17,-2.86 ± 0.26
UGAAAGCAAUAUUACGGUUG,-1.29 ± 0.079,-0.865 ± 0.091
AGAGAGCAAUAUUACGACGG,-3.4 ± 0.28,–
GUUCAGCAAUAUUACGUGAG,-0.139 ± 0.044,-0.408 ± 0.062
UGUUAGCAAUAUUACGUAAG,-0.949 ± 0.097,-0.452 ± 0.14
CUAGAGCAAUAUUACGGCAU,-3.75 ± 0.19,-2.75 ± 0.28
AGAGAGCAAUAUUACGCCGC,-3.9 ± 0.3,-1.49 ± 0.25
UGAAAGCAAUAUUACGCUUU,-4.77 ± 0.28,-2.53 ± 0.26
GGGGAGCAAUAUUACGGUGU,-3.87 ± 0.37,-1.37 ± 0.22
AGAGAGCAAUAUUACGAGCG,-2.63 ± 0.3,–
GGUGAGCAAUAUUACGUAAC,-2.35 ± 0.43,-1.22 ± 0.28

Sequence,self-splicing fitness (ln) (30 °C),self-splicing fitness (ln) (37 °C)
CGUCAGCAAUAUUACGGGGA,-2.96 ± 0.16,-1.91 ± 0.14
CGGGAGCAAUAUUACGUCUA,-1.89 ± 0.21,-1.82 ± 0.21
GAGUAGCAAUAUUACGGUAA,-2.23 ± 0.18,-1.25 ± 0.16
UUCUAGCAAUAUUACGGCGU,-1.72 ± 0.13,-1.2 ± 0.14
GACCAGCAAUAUUACGGCGG,-2.55 ± 0.2,-2.79 ± 0.27
ACCGAGCAAUAUUACGAGAA,–,-1.8 ± 0.29
CAACAGCAAUAUUACGCGGC,-3.03 ± 0.21,-2.09 ± 0.23
CCUUAGCAAUAUUACGGAUC,-3.45 ± 0.47,-3.6 ± 0.34
GAUUAGCAAUAUUACGCAUC,-2.32 ± 0.25,–
GUCCAGCAAUAUUACGCGGG,-4.23 ± 0.26,-2.92 ± 0.24
GUAAAGCAAUAUUACGGACG,-1.06 ± 0.12,0.298 ± 0.15
CGUUAGCAAUAUUACGGGUG,-0.565 ± 0.057,0.0881 ± 0.071
CGUAAGCAAUAUUACGAUGA,-3.44 ± 0.34,–
UUCAAGCAAUAUUACGAACU,-2.74 ± 0.27,-1.62 ± 0.25
UAGAAGCAAUAUUACGUCCA,-0.0908 ± 0.069,0.309 ± 0.1
ACAGAGCAAUAUUACGGUCA,-2.73 ± 0.22,-0.944 ± 0.17
GGUCAGCAAUAUUACGAUCC,–,-0.912 ± 0.18
CCUGAGCAAUAUUACGAGCA,-3.49 ± 0.27,-3.47 ± 0.3
ACCGAGCAAUAUUACGCCUG,-3.61 ± 0.24,-2.44 ± 0.17
CAGUAGCAAUAUUACGAGUA,-2.34 ± 0.21,-2.57 ± 0.31
CACAAGCAAUAUUACGGUUA,-1.01 ± 0.076,-0.918 ± 0.078
CCGGAGCAAUAUUACGGUUA,-2.44 ± 0.35,-2.64 ± 0.48
AACCAGCAAUAUUACGAUCG,-0.866 ± 0.084,-0.752 ± 0.099
UGGCAGCAAUAUUACGAAUA,-1.36 ± 0.12,-0.17 ± 0.13
CACAAGCAAUAUUACGCCAC,–,-1.43 ± 0.43

Sequence,self-splicing fitness (ln) (30 °C),self-splicing fitness (ln) (37 °C)
CCCCAGCAAUAUUACGUACC,-4.07 ± 0.18,-3.36 ± 0.35
UCUCAGCAAUAUUACGUAGA,-0.809 ± 0.091,-0.77 ± 0.13
AGCUAGCAAUAUUACGGUGG,-2.04 ± 0.092,-2.46 ± 0.17
UGCGAGCAAUAUUACGCGUU,-3.38 ± 0.27,-1.39 ± 0.18
CUGAAGCAAUAUUACGAGUC,-3.88 ± 0.19,-2.16 ± 0.21
UUCUAGCAAUAUUACGUUCU,-3.79 ± 0.46,-1.26 ± 0.18
CAAUAGCAAUAUUACGCGGU,-3.88 ± 0.19,-3.12 ± 0.2
GCCCAGCAAUAUUACGCUAU,-0.826 ± 0.082,-0.309 ± 0.086
ACGGAGCAAUAUUACGGUCG,-2.48 ± 0.11,-0.856 ± 0.11
CAAGAGCAAUAUUACGUUCU,-3.7 ± 0.27,-3.35 ± 0.23
AUUUAGCAAUAUUACGCUCA,-1.14 ± 0.18,0.0165 ± 0.19
UGUUAGCAAUAUUACGUCGA,-0.909 ± 0.12,0.0206 ± 0.13
UUUCAGCAAUAUUACGCGAG,-1.16 ± 0.14,0.301 ± 0.15
CGAAAGCAAUAUUACGUUCU,-0.581 ± 0.075,0.092 ± 0.1
UACCAGCAAUAUUACGUAUG,-2.62 ± 0.073,-1.58 ± 0.082
UUGUAGCAAUAUUACGCUGA,-1.09 ± 0.18,-1.05 ± 0.2
GCGGAGCAAUAUUACGGUGA,-2.38 ± 0.46,–
CAUAAGCAAUAUUACGUUAG,-1.13 ± 0.083,-0.61 ± 0.11
GCGGAGCAAUAUUACGUGUG,-3.19 ± 0.17,-2.77 ± 0.29
ACCCAGCAAUAUUACGGCAG,-3.84 ± 0.21,-2.74 ± 0.18
GACUAGCAAUAUUACGUCUU,-0.971 ± 0.099,-1.39 ± 0.15
AAUCAGCAAUAUUACGAUAC,-0.844 ± 0.081,-0.307 ± 0.11
GGUAAGCAAUAUUACGGGAC,-2.69 ± 0.29,-1.27 ± 0.2
GAUCAGCAAUAUUACGUGUG,-0.908 ± 0.044,-0.101 ± 0.06
UUGUAGCAAUAUUACGAACA,-0.432 ± 0.16,-0.256 ± 0.15
